The target in series [1] is Bis(5'-adenosyl)-triphosphatase (Homo sapiens) (UniProt P49789). As to the kind of experiment: Activity at human Fhit expressed in Escherichia coli BL 21 assessed as enzyme Km by Michaelis-Menten equation relative to control.
Series [2] deals with Nc1ncnc2c1ncn2[C@@H]1O[C@H](CO[P@@](=O)(S)OP(=O)(O)O[P@](=O)(S)OC[C@H]2O[C@@H](n3cnc4c(N)ncnc43)[C@H](O)[C@@H]2O)[C@@H](O)[C@H]1O. The experiment in a line: (§1) Activity at human Fhit expressed in Escherichia coli BL21 assessed as enzyme Km by Michaelis-Menten equation.
Series [3] has as its system Nc1ncnc2c1ncn2[C@@H]1O[C@H](CO[P@](=O)(S)OP(=O)(O)O[P@@](=O)(S)OC[C@H]2O[C@@H](n3cnc4c(N)ncnc43)[C@H](O)[C@@H]2O)[C@@H](O)[C@H]1O. The series is described as §1.
Series [4] deals with Nc1ncnc2c1ncn2[C@@H]1O[C@H](CO[P@](=O)(S)OP(=O)(O)O[P@](=O)(S)OC[C@H]2O[C@@H](n3cnc4c(N)ncnc43)[C@H](O)[C@@H]2O)[C@@H](O)[C@H]1O. The series is described as §1.
Series [5] has as its system Nc1ncnc2c1ncn2[C@@H]1O[C@H](CO[P@@](=O)(S)OP(=O)(O)O[P@](=O)(S)OC[C@H]2O[C@@H](n3cnc4c(N)ncnc43)[C@H](O)[C@@H]2O)[C@@H](O)[C@H]1O. As to the kind of experiment: (§2) Activity at human Fhit expressed in Escherichia coli BL21 assessed as enzyme Kcat by Michaelis-Menten equation.
The subject of series [6] is Nc1ncnc2c1ncn2[C@@H]1O[C@H](CO[P@](=O)(S)OP(=O)(O)O[P@@](=O)(S)OC[C@H]2O[C@@H](n3cnc4c(N)ncnc43)[C@H](O)[C@@H]2O)[C@@H](O)[C@H]1O. Described as §2.
The test system of series [7] is Nc1ncnc2c1ncn2[C@@H]1O[C@H](CO[P@](=O)(S)OP(=O)(O)O[P@](=O)(S)OC[C@H]2O[C@@H](n3cnc4c(N)ncnc43)[C@H](O)[C@@H]2O)[C@@H](O)[C@H]1O. The description is as §2.
Series [8] concerns Nc1ncnc2c1ncn2[C@@H]1O[C@H](CO[P@@](=O)(S)OP(=O)(O)O[P@](=O)(S)OC[C@H]2O[C@@H](n3cnc4c(N)ncnc43)[C@H](O)[C@@H]2O)[C@@H](O)[C@H]1O. The experiment in a line: (§3) Activity at human Fhit expressed in Escherichia coli BL21 assessed as ratio of enzyme Kcat to Km by Michaelis-Menten equation.
Series [9] has as its system Nc1ncnc2c1ncn2[C@@H]1O[C@H](CO[P@](=O)(S)OP(=O)(O)O[P@@](=O)(S)OC[C@H]2O[C@@H](n3cnc4c(N)ncnc43)[C@H](O)[C@@H]2O)[C@@H](O)[C@H]1O. The series is described as §3.
Series [10] concerns Nc1ncnc2c1ncn2[C@@H]1O[C@H](CO[P@](=O)(S)OP(=O)(O)O[P@](=O)(S)OC[C@H]2O[C@@H](n3cnc4c(N)ncnc43)[C@H](O)[C@@H]2O)[C@@H](O)[C@H]1O. The series is described as §3.
Series [11] deals with Nc1ncnc2c1ncn2[C@@H]1O[C@H](COP(=O)(O)OP(=O)(O)OP(=O)(O)OC[C@H]2O[C@@H](n3cnc4c(N)ncnc43)[C@H](O)[C@@H]2O)[C@@H](O)[C@H]1O. The experiment in a line: Activity at human Fhit expressed in Escherichia coli SG100 assessed as enzyme Kcat by Michaelis-Menten equation.
Series [12] has the same test system. As to the kind of experiment: (§4) Activity at human Fhit expressed in Escherichia coli SG100 assessed as ratio of enzyme Kcat to Km by Michaelis-Menten equation.
Series [13] deals with Nc1ncnc2c1ncn2[C@@H]1O[C@H](CO[P@](=O)(S)OP(=O)(O)OP(=O)(O)OCc2cccc([N+](=O)[O-])c2)[C@@H](O)[C@H]1O. The description is as §4.
For series [14], the system named is Nc1ncnc2c1ncn2[C@@H]1O[C@H](COP(=O)(O)OP(=O)(O)OP(=O)(O)OC[C@H]2O[C@@H](n3cnc4c(N)ncnc43)[C@H](O)[C@@H]2O)[C@@H](O)[C@H]1O. The experiment in a line: (§5) Activity at human Fhit expressed in Escherichia coli SG100 assessed as enzyme Km by Michaelis-Menten equation.
Series [15] relates to Nc1ncnc2c1ncn2[C@@H]1O[C@H](CO[P@](=O)(S)OP(=O)(O)OP(=O)(O)OCc2cccc([N+](=O)[O-])c2)[C@@H](O)[C@H]1O. The description is as §5.
The test system is the same in series [16]. As to the kind of experiment: Activity at human Fhit expressed in Escherichia coli SG100 assessed as enzyme Vmax by Michaelis-Menten equation.

Bis(5'-adenosyl)-triphosphatase (Homo sapiens), sequence (P49789 whole entry, looked up): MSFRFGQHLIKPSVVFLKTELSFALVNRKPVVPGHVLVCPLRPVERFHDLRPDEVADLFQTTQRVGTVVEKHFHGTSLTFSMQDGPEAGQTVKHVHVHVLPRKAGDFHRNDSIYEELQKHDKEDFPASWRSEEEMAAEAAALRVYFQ
Bis(5'-adenosyl)-triphosphatase (Homo sapiens), P49789, sequence (P49789 whole entry): as the sequence (P49789 whole entry, looked up) above

Take `Nc1ncnc2c1ncn2[C@@H]1O[C@H](CO[P@@](=O)(S)OP(=O)(O)O[P@](=O)(S)OC[C@H]2O[C@@H](n3cnc4c(N)ncnc43)[C@H](O)[C@@H]2O)[C@@H](O)[C@H]1O`: in series [1], the fold change (FC) turned out to be 2.8.

Turning to `Nc1ncnc2c1ncn2[C@@H]1O[C@H](CO[P@](=O)(S)OP(=O)(O)O[P@@](=O)(S)OC[C@H]2O[C@@H](n3cnc4c(N)ncnc43)[C@H](O)[C@@H]2O)[C@@H](O)[C@H]1O`, the fold change (FC) in [1] amounted to 2.8.

With `Nc1ncnc2c1ncn2[C@@H]1O[C@H](CO[P@](=O)(S)OP(=O)(O)O[P@](=O)(S)OC[C@H]2O[C@@H](n3cnc4c(N)ncnc43)[C@H](O)[C@@H]2O)[C@@H](O)[C@H]1O`, the fold change (FC) in series [1] worked out at 2.8.

For “Bis(5'-adenosyl)-triphosphatase (Homo sapiens), P49789”, the Km in series [2] is 5.32 µM; in [3], 3.54 µM; in series [4], 1.25 µM; in series [14] it was 1.9 µM; in series [15], 2.8 µM. In addition, the kcat in series [5] was determined as 8.4 ×10⁻⁴ /s; in series [6], 4.8 ×10⁻⁴ /s; in series [7] it was 29.9 ×10⁻⁴ /s; in series [11], 73 s⁻¹. In addition, the kcat/Km in series [8] is 1.7 ×10² /M/s; in [9], 1.4 ×10² /M/s; in [10], 24 ×10² /M/s; in [12], 3.8 ×10⁷ /M/s; in series [13] it was 0.125 ×10⁶ /s/M. Moreover, the Vmax (10'-6mol/min/ug) in series [16] was 0.35.

(Values after ChEMBL document CHEMBL3860051, “Phosphorothioate analogs of P1,P3-di(nucleosid-5'-yl) triphosphates: Synthesis, assignment of the absolute configuration at P-atoms and P-stereodependent recognition by Fhit hydrolase” (Bioorg Med Chem, 2016).)
